Legend:
[1] = biological target: T1, PH1501 (Pyrococcus horikoshii, UniProt O59170); assay: UPLC detection of D-amino acid; type: biochemical; settings: partially purified (heat-treated) enzyme; 100 mM HEPES pH 7.0, 10 mM L-amino acid, 0.04 mM PLP, 80°C, 60 min; slight peak
T1 construct: full-length, pET11a (NdeI/BamHI), no tag described, E. coli BL21 (DE3), partially purified by heat treatment at 90°C; about 50 kDa on SDS-PAGE
T1 sequence (O59170 1-438): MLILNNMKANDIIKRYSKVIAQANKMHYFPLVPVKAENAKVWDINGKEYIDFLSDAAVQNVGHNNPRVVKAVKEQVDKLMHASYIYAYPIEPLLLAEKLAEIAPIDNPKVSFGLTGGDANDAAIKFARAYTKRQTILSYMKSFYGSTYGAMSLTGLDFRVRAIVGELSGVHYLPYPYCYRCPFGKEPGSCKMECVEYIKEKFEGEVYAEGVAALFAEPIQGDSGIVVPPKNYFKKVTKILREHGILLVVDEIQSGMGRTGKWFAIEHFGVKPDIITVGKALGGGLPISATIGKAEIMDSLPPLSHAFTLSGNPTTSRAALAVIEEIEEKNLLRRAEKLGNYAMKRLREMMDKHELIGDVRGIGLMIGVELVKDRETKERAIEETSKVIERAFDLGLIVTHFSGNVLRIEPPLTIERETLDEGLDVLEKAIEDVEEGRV

[2] = biological target: T2, PH0782; Ala/Ser racemase (ASR) (Pyrococcus horikoshii, UniProt O58478); assay: apo-enzyme reactivation, racemase activity; type: biochemical; settings: apo-enzyme prepared at 80°C for 18 h in assay mixture with L-Ala; covalent (Schiff base, K291 suggested)
T2 construct: full-length, pET11a (NdeI/BglII), no tag described, E. coli BL21 (DE3), purified; hexamer about 300 kDa; fold type I PLP enzyme

[3] = biological target: the molecule itself; assay: SEC; gel filtration on HiLoad 26/60 Superdex 200 with molecular mass standards (thyroglobulin, gamma-globulin, ovalbumin, myoglobin); native mass about 300 kDa against a subunit of 50.5 kDa (calculated)
[4] = substrate: C[C@H](N)C(=O)O; assay: purified protein; settings: 100 mM HEPES pH 7.0, 0.04 mM PLP, 80°C, racemization to D-Ala, apparent
[5] = substrate: C[C@@H](N)C(=O)O; assay: purified protein; settings: 100 mM HEPES pH 7.0, 0.04 mM PLP, 80°C, racemization to L-Ala, apparent
[6] = substrate: N[C@H](CO)C(=O)O; assay: purified protein; settings: 100 mM HEPES pH 7.0, 0.04 mM PLP, 80°C, racemization to L-Ser, apparent
[7] = substrate: N[C@@H](CO)C(=O)O; assay: purified protein; settings: 100 mM HEPES pH 7.0, 0.04 mM PLP, 80°C, racemization to D-Ser, apparent

`N[C@@H](Cc1ccccc1)C(=O)O` [Phe] was tested, and the “UPLC detection of D-amino acid” value [1] was “Slight peaks for the D-forms of Met, Phe, and Leu were detected”.

In the case of `CSCC[C@H](N)C(=O)O` [Met], the “UPLC detection of D-amino acid” value [1] is reported as “Slight peaks for the D-forms of Met, Phe, and Leu were detected”.

For `Cc1ncc(COP(=O)(O)O)c(C=O)c1O` [pyridoxal 5′-phosphate], the “apo-enzyme reactivation, racemase activity” value [2] was “apo-enzyme exhibited no activity in the absence of PLP and recovered its activity by addition”.

B1: Ala/Ser racemase (ASR), the protein encoded by PH0782, from Pyrococcus horikoshii OT-3 (enzyme, UniProt O58478 1-474, looked up)
chain: MPFLPFSYYPFSLEVILMEYPKIVVKPPGPRAKELIEREKKVLSTGIGVKLFPLVPKRGFGPFIEDVDGNVFIDFLAGAAAASTGYAHPKLVKAVKEQVELIQHSMIGYTHSERAIRVAEKLVEISPIENSKVIFGLSGSDAVDMAIKVSKFSTRRPWILAFIGAYHGQTLGATSVASFQVSQKRGYSPLMPNVFWIPYPNPFRNIWGINGYEEPDELINRVLDYLEYYVFSHVVPPDEVAALFAEPIQGDAGIVVPPENFFKELKKLLEEYGILLVMDEVQTGIGRTGKWFASEWFNVKPDMIIFGKGVASGMGLSGVIGRKEIMDITSGSALLTPAANPVISAAAEATLEIIEEENLLKNALEVGEFIMGRLKEIKERFEIIGDVRGKGLMIGVEIVKENGRPDPEMTGKICWRAFELGLILPSYGMFGNVIRITPPLVLTKEVAEKALEIIERAIKDTLTGKVERKVVTWH
notes: Ala/Ser racemase encoded by ORF PH0782 of Pyrococcus horikoshii OT-3 (annotated as a putative GABA aminotransferase); amplified from genomic DNA with primers from the initiation codon to the termination codon; calculated subunit mass 50.5 kDa; PLP-dependent enzyme; also called BAR homolog; source: E. coli BL21 (DE3), pET11a/PH0782, purified (heat treatment, butyl-Toyopearl, DEAE-cellurofine)
For B1, the “stoichiometry N” value [3] was 6.

B2: PH0782; Ala/Ser racemase (ASR) (Pyrococcus horikoshii OT3) (protein)
chain: MEYPKIVVKPPGPRAKELIEREKKVLSTGIGVKLFPLVPKRGFGPFIEDVDGNVFIDFLAGAAAASTGYAHPKLVKAVKEQVELIQHSMIGYTHSERAIRVAEKLVEISPIENSKVIFGLSGSDAVDMAIKVSKFSTRRPWILAFIGAYHGQTLGATSVASFQVSQKRGYSPLMPNVFWIPYPNPFRNIWGINGYEEPDELINRVLDYLEYYVFSHVVPPDEVAALFAEPIQGDAGIVVPPENFFKELKKLLEEYGILLVMDEVQTGIGRTGKWFASEWFNVKPDMIIFGKGVASGMGLSGVIGRKEIMDITSGSALLTPAANPVISAAAEATLEIIEEENLLKNALEVGEFIMGRLKEIKERFEIIGDVRGKGLMIGVEIVKENGRPDPEMTGKICWRAFELGLILPSYGMFGNVIRITPPLVLTKEVAEKALEIIERAIKDTLTGKVERKVVTWH
In the case of B2, the Km [4] is reported as 3.3 ± 0.22 mM, the Vmax [4] is reported as 28.2 µmol/min/mg and the kcat/Km [4] is reported as 7190 M⁻¹ s⁻¹. For the same molecule, the Km [5] was 5.5 ± 0.59 mM, the Vmax [5] was 49.5 µmol/min/mg and the kcat/Km [5] was 7580 M⁻¹ s⁻¹. It also gave a Km [6] of 5.9 ± 0.40 mM, a Vmax [6] of 41.2 µmol/min/mg and a kcat/Km [6] of 5880 M⁻¹ s⁻¹. The Km [7] was 4.5 ± 0.32 mM, the Vmax [7] was 31.4 µmol/min/mg and the kcat/Km [7] was 5870 M⁻¹ s⁻¹.
